# In the Human Domainome abundance scans (Beltran et al. 2025):
# ± gives the uncertainty stated by the source.
# B1: Cullin-9, residues 2234 to 2275; numbered along this chain, Q8IWT3 (parent)
# chain: KRCPSCQAPIEKNEGCLHMTCAKCNHGFCWRCLKSWKPNHKD
# Variants of: B1
# Experiment: abundance fitness (aPCA) (normalised: wild type 0, dead -1); higher = more abundant; growth selection in yeast, the domain comes from the species named
# Conditions: Homo sapiens
row,Variant,abundance fitness
1,KRCPSCQAPIEKNEGCLHMTCAKCNCGFCWRCLKSWKPNHKD [H26C],-0.628 ± 0.15
2,KRCPSCQAPIEKNEGCLHMTCAKCNDGFCWRCLKSWKPNHKD [H26D],0.063 ± 0.11
3,KRCPSCQAPIEKNEGCLHMTCAKCNEGFCWRCLKSWKPNHKD [H26E],-0.091 ± 0.093
4,KRCPSCQAPIEKNEGCLHMTCAKCNFGFCWRCLKSWKPNHKD [H26F],0.146 ± 0.2
5,KRCPSCQAPIEKNEGCLHMTCAKCNGGFCWRCLKSWKPNHKD [H26G],-0.02 ± 0.075
6,KRCPSCQAPIEKNEGCLHMTCAKCNIGFCWRCLKSWKPNHKD [H26I],-0.367 ± 0.2
7,KRCPSCQAPIEKNEGCLHMTCAKCNKGFCWRCLKSWKPNHKD [H26K],-0.314 ± 0.16
8,KRCPSCQAPIEKNEGCLHMTCAKCNLGFCWRCLKSWKPNHKD [H26L],-0.419 ± 0.094
9,KRCPSCQAPIEKNEGCLHMTCAKCNMGFCWRCLKSWKPNHKD [H26M],-0.109 ± 0.12
10,KRCPSCQAPIEKNEGCLHMTCAKCNNGFCWRCLKSWKPNHKD [H26N],-0.287 ± 0.16
11,KRCPSCQAPIEKNEGCLHMTCAKCNPGFCWRCLKSWKPNHKD [H26P],-0.154 ± 0.098
12,KRCPSCQAPIEKNEGCLHMTCAKCNQGFCWRCLKSWKPNHKD [H26Q],-0.17 ± 0.11
13,KRCPSCQAPIEKNEGCLHMTCAKCNRGFCWRCLKSWKPNHKD [H26R],-0.213 ± 0.078
14,KRCPSCQAPIEKNEGCLHMTCAKCNSGFCWRCLKSWKPNHKD [H26S],0.055 ± 0.12
15,KRCPSCQAPIEKNEGCLHMTCAKCNTGFCWRCLKSWKPNHKD [H26T],-0.226 ± 0.16
16,KRCPSCQAPIEKNEGCLHMTCAKCNVGFCWRCLKSWKPNHKD [H26V],-0.266 ± 0.081
17,KRCPSCQAPIEKNEGCLHMTCAKCNWGFCWRCLKSWKPNHKD [H26W],-0.541 ± 0.14
18,KRCPSCQAPIEKNEGCLHMTCAKCNYGFCWRCLKSWKPNHKD [H26Y],-0.1 ± 0.12
19,KRCPSCQAPIEKNEGCLHMTCAKCNHAFCWRCLKSWKPNHKD [G27A],0.194 ± 0.077
20,KRCPSCQAPIEKNEGCLHMTCAKCNHCFCWRCLKSWKPNHKD [G27C],0.036 ± 0.12

row,Variant,abundance fitness
1,KRCPSCQAPIEKNEGCLHMTCAKCNHDFCWRCLKSWKPNHKD [G27D],0.193 ± 0.14
2,KRCPSCQAPIEKNEGCLHMTCAKCNHEFCWRCLKSWKPNHKD [G27E],0.708 ± 0.091
3,KRCPSCQAPIEKNEGCLHMTCAKCNHHFCWRCLKSWKPNHKD [G27H],0.379 ± 0.14
4,KRCPSCQAPIEKNEGCLHMTCAKCNHIFCWRCLKSWKPNHKD [G27I],-0.083 ± 0.26
5,KRCPSCQAPIEKNEGCLHMTCAKCNHKFCWRCLKSWKPNHKD [G27K],0.075 ± 0.14
6,KRCPSCQAPIEKNEGCLHMTCAKCNHLFCWRCLKSWKPNHKD [G27L],-0.457 ± 0.099
7,KRCPSCQAPIEKNEGCLHMTCAKCNHMFCWRCLKSWKPNHKD [G27M],-0.264 ± 0.18
8,KRCPSCQAPIEKNEGCLHMTCAKCNHPFCWRCLKSWKPNHKD [G27P],-0.129 ± 0.15
9,KRCPSCQAPIEKNEGCLHMTCAKCNHQFCWRCLKSWKPNHKD [G27Q],0.439 ± 0.13
10,KRCPSCQAPIEKNEGCLHMTCAKCNHRFCWRCLKSWKPNHKD [G27R],0.159 ± 0.074
11,KRCPSCQAPIEKNEGCLHMTCAKCNHSFCWRCLKSWKPNHKD [G27S],0.256 ± 0.097
12,KRCPSCQAPIEKNEGCLHMTCAKCNHTFCWRCLKSWKPNHKD [G27T],0.326 ± 0.11
13,KRCPSCQAPIEKNEGCLHMTCAKCNHWFCWRCLKSWKPNHKD [G27W],-0.005 ± 0.11
14,KRCPSCQAPIEKNEGCLHMTCAKCNHYFCWRCLKSWKPNHKD [G27Y],-0.425 ± 0.3
15,KRCPSCQAPIEKNEGCLHMTCAKCNHGACWRCLKSWKPNHKD [F28A],-0.173 ± 0.084
16,KRCPSCQAPIEKNEGCLHMTCAKCNHGCCWRCLKSWKPNHKD [F28C],-0.189 ± 0.14
17,KRCPSCQAPIEKNEGCLHMTCAKCNHGDCWRCLKSWKPNHKD [F28D],0.101 ± 0.17
18,KRCPSCQAPIEKNEGCLHMTCAKCNHGECWRCLKSWKPNHKD [F28E],-0.074 ± 0.089
19,KRCPSCQAPIEKNEGCLHMTCAKCNHGHCWRCLKSWKPNHKD [F28H],0.322 ± 0.16
20,KRCPSCQAPIEKNEGCLHMTCAKCNHGKCWRCLKSWKPNHKD [F28K],-0.288 ± 0.11

row,Variant,abundance fitness
1,KRCPSCQAPIEKNEGCLHMTCAKCNHGLCWRCLKSWKPNHKD [F28L],-0.233 ± 0.1
2,KRCPSCQAPIEKNEGCLHMTCAKCNHGMCWRCLKSWKPNHKD [F28M],-0.39 ± 0.14
3,KRCPSCQAPIEKNEGCLHMTCAKCNHGNCWRCLKSWKPNHKD [F28N],0.135 ± 0.18
4,KRCPSCQAPIEKNEGCLHMTCAKCNHGPCWRCLKSWKPNHKD [F28P],0.048 ± 0.12
5,KRCPSCQAPIEKNEGCLHMTCAKCNHGQCWRCLKSWKPNHKD [F28Q],0.084 ± 0.11
6,KRCPSCQAPIEKNEGCLHMTCAKCNHGTCWRCLKSWKPNHKD [F28T],-0.219 ± 0.1
7,KRCPSCQAPIEKNEGCLHMTCAKCNHGVCWRCLKSWKPNHKD [F28V],-0.236 ± 0.096
8,KRCPSCQAPIEKNEGCLHMTCAKCNHGWCWRCLKSWKPNHKD [F28W],-0.255 ± 0.091
9,KRCPSCQAPIEKNEGCLHMTCAKCNHGYCWRCLKSWKPNHKD [F28Y],-0.049 ± 0.21
10,KRCPSCQAPIEKNEGCLHMTCAKCNHGFAWRCLKSWKPNHKD [C29A],-0.76 ± 0.11
11,KRCPSCQAPIEKNEGCLHMTCAKCNHGFEWRCLKSWKPNHKD [C29E],-0.432 ± 0.11
12,KRCPSCQAPIEKNEGCLHMTCAKCNHGFFWRCLKSWKPNHKD [C29F],-1.53 ± 0.46
13,KRCPSCQAPIEKNEGCLHMTCAKCNHGFGWRCLKSWKPNHKD [C29G],-0.737 ± 0.093
14,KRCPSCQAPIEKNEGCLHMTCAKCNHGFHWRCLKSWKPNHKD [C29H],-0.532 ± 0.16
15,KRCPSCQAPIEKNEGCLHMTCAKCNHGFKWRCLKSWKPNHKD [C29K],-0.632 ± 0.17
16,KRCPSCQAPIEKNEGCLHMTCAKCNHGFLWRCLKSWKPNHKD [C29L],-0.696 ± 0.1
17,KRCPSCQAPIEKNEGCLHMTCAKCNHGFMWRCLKSWKPNHKD [C29M],-0.969 ± 0.22
18,KRCPSCQAPIEKNEGCLHMTCAKCNHGFNWRCLKSWKPNHKD [C29N],-0.761 ± 0.39
19,KRCPSCQAPIEKNEGCLHMTCAKCNHGFQWRCLKSWKPNHKD [C29Q],-0.563 ± 0.12
20,KRCPSCQAPIEKNEGCLHMTCAKCNHGFRWRCLKSWKPNHKD [C29R],-0.888 ± 0.096
